Test results: PMC11098746 (2024)

B1: ADP118 (protein)
chain: MARAAALLPSRSPPTPLLWPLLLLLLLETGAQDVRVQVLPEVRGQLGGTVELPCHLLPPVPGLYISLVTWQRPDAPANHQNVAAFHPKMGPSFPSPKPGSERLSFVSAKQSTGQDTEAELQDATLALHGLTVEDEGNYTCEFATFPKGSVRGMTWLRVIAKPKNQAEAQKVTFSQDPTTVALCISKEGRPPARISWLSSLDWEAKETQVSGTLAGTVTVTSRFTLVPSGRADGVTVTCKVEHESFEEPALIPVTLSVRYPPEVSISGYDDNWYLGRTDATLSCDVRSNPEPTGYDWSTTSGTFPTSAVAQGSQLVIHAVDSLFNTTFVCTVTNAVGMGRAEQVIFVRETPNTAGAGAT
modifications: bait human Fc-tagged dimer
B2: ADP353 (protein)
chain: MAARWRFWCVSVTMVVALLIVCDVPSASAQRKKEMVLSEKVSQLMEWTNKRPVIRMNGDKFRRLVKAPPRNYSVIVMFTALQLHRQCVVCKQADEEFQILANSWRYSSAFTNRIFFAMVDFDEGSDVFQMLNMNSAPTFINFPAKGKPKRGDTYELQVRGFSAEQIARWIADRTDVNIRVIRPP
modifications: bait human Fc-tagged dimer
B3: ADP147 (protein)
chain: MAACGRVRRMFRLSAALHLLLLFAAGAEKLPGQGVHSQGQGPGANFVSFVGQAGGGGPAGQQLPQLPQSSQLQQQQQQQQQQQQPQPPQPPFPAGGPPARRGGAGAGGGWKLAEEESCREDVTRVCPKHTWSNNLAVLECLQDVREPENEISSDCNHLLWNYKLNLTTDPKFESVAREVCKSTITEIKECADEPVGKGYMVSCLVDHRGNITEYQCHQYITKMTAIIFSDYRLICGFMDDCKNDINILKCGSIRLGEKDAHSQGEVVSCLEKGLVKEAEEREPKIQVSELCKKAILRVAELSSDDFHLDRHLYFACRDDRERFCENTQAGEGRVYKCLFNHKFEESMSEKCREALTTRQKLIAQDYKVSYSLAKSCKSDLKKYRCNVENLPRSREARLSYLLMCLESAVHRGRQVSSECQGEMLDYRRMLMEDFSLSPEIILSCRGEIEHHCSGLHRKGRTLHCLMKVVRGEKGNLGMNCQQALQTLIQETDPGADYRIDRALNEACESVIQTACKHIRSGDPMILSCLMEHLYTEKMVEDCEHRLLELQYFISRDWKLDPVLYRKCQGDASRLCHTHGWNETSEFMPQGAVFSCLYRHAYRTEEQGRRLSRECRAEVQRILHQRAMDVKLDPALQDKCLIDLGKWCSEKTETGQELECLQDHLDDLVVECRDIVGNLTELESEDIQIEALLMRACEPIIQNFCHDVADNQIDSGDLMECLIQNKHQKDMNEKCAIGVTHFQLVQMKDFRFSYKFKMACKEDVLKLCPNIKKKVDVVICLSTTVRNDTLQEAKEHRVSLKCRRQLRVEELEMTEDIRLEPDLYEACKSDIKNFCSAVQYGNAQIIECLKENKKQLSTRCHQKVFKLQETEMMDPELDYTLMRVCKQMIKRFCPEADSKTMLQCLKQNKNSELMDPKCKQMITKRQITQNTDYRLNPMLRKACKADIPKFCHGILTKAKDDSELEGQVISCLKLRYADQRLSSDCEDQIRIIIQESALDYRLDPQLQLHCSDEISSLCAEEAAAQEQTGQVEECLKVNLLKIKTELCKKEVLNMLKESKADIFVDPVLHTACALDIKHHCAAITPGRGRQMSCLMEALEDKRVRLQPECKKRLNDRIEMWSYAAKVAPADGFSDLAMQVMTSPS
modifications: bait human Fc-tagged dimer
B4: ADP128 (protein)
chain: MAAEGWIWRWGWGRRCLGRPGLLGPGPGPTTPLFLLLLLGSVTADITDGNSEHLKREHSLIKPYQGVGSSSMPLWDFQGSTMLTSQYVRLTPDERSKEGSIWNHQPCFLKDWEMHVHFKVHGTGKKNLHGDGIALWYTRDRLVPGPVFGSKDNFHGLAIFLDTYPNDETTERVFPYISVMVNNGSLSYDHSKDGRWTELAGCTADFRNRDHDTFLAVRYSRGRLTVMTDLEDKNEWKNCIDITGVRLPTGYYFGASAGTGDLSDNHDIISMKLFQLMVEHTPDEESIDWTKIEPSVNFLKSPKDNVDDPTGNFRSGPLT
modifications: bait human Fc-tagged dimer
B5: ADP104 (protein)
chain: MEPPDAPAQARGAPRLLLLAVLLAAHPDAQAEVRLSVPPLVEVMRGKSVILDCTPTGTHDHYMLEWFLTDRSGARPRLASAEMQGSELQVTMHDTRGRSPPYQLDSQGRLVLAEAQVGDERDYVCVVRAGAAGTAEATARLNVFAKPEATEVSPNKGTLSVMEDSAQEIATCNSRNGNPAPKITWYRNGQRLEVPVEMNPEGYMTSRTVREASGLLSLTSTLYLRLRKDDRDASFHCAAHYSLPEGRHGRLDSPTFHLTLHYPTEHVQFWVGSPSTPAGWVREGDTVQLLCRGDGSPSPEYTLFRLQDEQEEVLNVNLEGNLTLEGVTRGQSGTYGCRVEDYDAADDVQLSKTLELRVAYLDPLELSEGKVLSLPLNSSAVVNCSVHGLPTPALRWTKDSTPLGDGPMLSLSSITFDSNGTYVCEASLPTVPVLSRTQNFTLLVQGSPELKTAEIEPKADGSWREGDEVTLICSARGHPDPKLSWSQLGGSPAEPIPGRQGWVSSSLTLKVTSALSRDGISCEASNPHGNKRHVFHFGTVSPQTSQAG
modifications: bait human Fc-tagged dimer
B6: ADP262 (protein)
chain: QNSQLQEELRGLRETFSNFTASTEAQVKGLSTQGGNVGRKMKSLESQLEKQQKDLSEDHSSLLLHVKQFVSDLRSLSCQMAALQGNGSERTCCPVNWVEHERSCYWFSRSGKAWADADNYCRLEDAHLVVVTSWEEQKFVQHHIGPVNTWMGLHDQNGPWKWVDGTDYETGFKNWRPEQPDDWYGHGLGGGEDCAHFTDDGRWNDDVCQRPYRWVCETELDKASQEPPLL
modifications: bait human Fc-tagged dimer
B7: ADP154 (protein)
chain: MAGKWLLCMLLVLGTAIVEAHDGHDDDVIDIEDDLDDVIEEVEDSKPDTTAPPSSPKVTYKAPVPTGEVYFADSFDRGTLSGWILSKAKKDDTDDEIAKYDGKWEVEEMKESKLPGDKGLVLMSRAKHHAISAKLNKPFLFDTKPLIVQYEVNFQNGIECGGAYVKLLSKTPELNLDQFHDKTPYTIMFGPDKCGEDYKLHFIFRHKNPKTGIYEEKHAKRPDADLKTYFTDKKTHLYTLILNPDNSFEILVDQSVVNSGNLLNDMTPPVNPSREIEDPEDRKPEDWDERPKIPDPEAVKPDDWDEDAPAKIPDEEATKPEGWLDDEPEYVPDPDAEKPEDWDEDMDGEWEAPQIANPRCESAPGCGVWQRPVIDNPNYKGKWKPPMIDNPSYQGIWKPRKIPNPDFFEDLEPFRMTPFSAIGLELWSMTSDIFFDNFIICADRRIVDDWANDGWGLKKAADGAAEPGVVGQMIEAAEERP
modifications: bait human Fc-tagged dimer
B8: ADP358 (protein)
chain: MARSPGRAYALLLLLICFNVGSGLHLQVLSTRNENKLLPKHPHLVRQKRAWITAPVALREGEDLSKKNPIAKIHSDLAEERGLKITYKYTGKGITEPPFGIFVFNKDTGELNVTSILDREETPFFLLTGYALDARGNNVEKPLELRIKVLDINDNEPVFTQDVFVGSVEELSAAHTLVMKINATDADEPNTLNSKISYRIVSLEPAYPPVFYLNKDTGEIYTTSVTLDREEHSSYTLTVEARDGNGEVTDKPVKQAQVQIRILDVNDNIPVVENKVLEGMVEENQVNVEVTRIKVFDADEIGSDNWLANFTFASGNEGGYFHIETDAQTNEGIVTLIKEVDYEEMKNLDFSVIVANKAAFHKSIRSKYKPTPIPIKVKVKNVKEGIHFKSSVISIYVSESMDRSSKGQIIGNFQAFDEDTGLPAHARYVKLEDRDNWISVDSVTSEIKLAKLPDFESRYVQNGTYTVKIVAISEDYPRKTITGTVLINVEDINDNCPTLIEPVQTICHDAEYVNVTAEDLDGHPNSGPFSFSVIDKPPGMAEKWKIARQESTSVLLQQSEKKLGRSEIQFLISDNQGFSCPEKQVLTLTVCECLHGSGCREAQHDSYVGLGP
modifications: bait human Fc-tagged dimer
B9: ADP343 (protein)
chain: MALASAAPGSIFCKQLLFSLLVLTLLCDACQKVYLRVPSHLQAETLVGKVNLEECLKSASLIRSSDPAFRILEDGSIYTTHDLILSSERKSFSIFLSDGQRREQQEIKVVLSARENKSPKKRHTKDTALKRSKRRWAPIPASLMENSLGPFPQHVQQIQSDAAQNYTIFYSISGPGVDKEPFNLFYIEKDTGDIFCTRSIDREKYEQFALYGYATTADGYAPEYPLPLIIKIEDDNDNAPYFEHRVTIFTVPENCRSGTSVGKVTATDLDEPDTLHTRLKYKILQQIPDHPKHFSIHPDTGVITTTTPFLDREKCDTYQLIMEVRDMGGQPFGLFNTGTITISLEDENDNPPSFTETSYVTEVEENRIDVEILRMKVQDQDLPNTPHSKAVYKILQGNENGNFIISTDPNTNEGVLCVVKPLNYEVNRQVILQVGVINEAQFSKAASSQTPTMCTTTVTVKIIDSDEGPECHPPVKVIQSQDGFPAGQELLGYKALDPEISSGEGLRYQKLGDEDNWFEINQHTGDLRTLKVLDRESKFVKNNQYNISVVAVDAVGRSCTGTLVVHLDDYNDHAPQIDKEVTICQNNEDFAVLKPVDPDGPENGPPFQFFLDNSASKNWNIEEKDGKTAILRQRQNLDYNYYSVPIQIKDRHGLVATHMLTVRVCDCSTPSECRMKDKSTRDVRPNVILG
modifications: bait human Fc-tagged dimer
B10: ADP117 (protein)
chain: MAAPGSARRPLLLLLLLLLLGLMHCASAAMFMVKNGNGTACIMANFSAAFSVNYDTKSGPKNMTFDLPSDATVVLNRSSCGKENTSDPSLVIAFGRGHTLTLNFTRNATRYSVQLMSFVYNLSDTHLFPNASSKEIKTVESITDIRADIDKKYRCVSGTQVHMNNVTVTLHDATIQAYLSNSSFSRGETRCEQDRPSPTTAPPAPPSPSPSPVPKSPSVDKYNVSGTNGTCLLASMGLQLNLTYERKDNTTVTRLLNINPNKTSASGSCGAHLVTLELHSEGTTVLLFQFGMNASSSRFFLQGIQLNTILPDARDPAFKAANGSLRALQATVGNSYKCNAEEHVRVTKAFSVNIFKVWVQAFKVEGGQFGSVEECLLDENSMLIP
modifications: bait human Fc-tagged dimer
B11: ADP302 (protein)
chain: MAAWKSWTALRLCATVVVLDMVVCKGFVEDLDESFKENRNDDIWLVDFYAPWCGHCKKLEPIWNEVGLEMKSIGSPVKVGKMDATSYSSIASEFGVRGYPTIKLLKGDLAYNYRGPRTKDDIIEFAHRVSGALIRPLPSQQMFEHMQKRHRVFFVYVGGESPLKEKYIDAASELIVYTYFFSASEEVVPEYVTLKEMPAVLVFKDETYFVYDEYEDGDLSSWINRERFQNYLAMDGFLLYELGDTGKLVALAVIDEKNTSVEHTRLKSIIQEVARDYRDLFHRDFQFGHMDGNDYINTLLMDELTVPTVVVLNTSNQQYFLLDRQIKNVEDMVQFINNILDGTVEAQGGDSILQRLKRIVFDAKSTIVSIFKSSP
modifications: bait human Fc-tagged dimer
B12: ADP133 (protein)
chain: MAPLRPLLILALLAWVALADQESCKGRCTEGFNVDKKCQCDELCSYYQSCCTDYTAECKPQVTRGDVFTMPEDEYTVYDDGEEKNNATVHEQVGGPSLTSDLQAQSKGNPEQTPVLKPEEEAPAPEVGASKPEGIDSRPETLHPGRPQPPAEEELCSGKPFDAFTDLKNGSLFAFRGQYCYELDEKAVRPGYPKLIRDVWGIEGPIDAAFTRINCQGKTYLFKGSQYWRFEDGVLDPDYPRNISDGFDGIPDNVDAALALPAHSYSGRERVYFFKGKQYWEYQFQHQPSQEECEGSSLSAVFEHFAMMQRDSWEDIFELLFWGRTSAGTRQPQFISRDWHGVPGQVDAAMAGRIYISGMAPRPSLAKKQRFRHRNRKGYRSQRGHSRGRNQNSRRPSRATWLSLFSSEESNLGANNYDDYRMDWLVPATCEPIQSVFFFSGDKYYRVNLRTRRVDTVDPPYPRSIAQYWLGCPAPGHL
modifications: bait human Fc-tagged dimer

biological target: Circumsporozoite protein (CSP) (Plasmodium falciparum (isolate 3D7), UniProt Q7K740); assay: AVEXIS screen signal:noise (double-corrected)
Sequence (Q7K740 19-374): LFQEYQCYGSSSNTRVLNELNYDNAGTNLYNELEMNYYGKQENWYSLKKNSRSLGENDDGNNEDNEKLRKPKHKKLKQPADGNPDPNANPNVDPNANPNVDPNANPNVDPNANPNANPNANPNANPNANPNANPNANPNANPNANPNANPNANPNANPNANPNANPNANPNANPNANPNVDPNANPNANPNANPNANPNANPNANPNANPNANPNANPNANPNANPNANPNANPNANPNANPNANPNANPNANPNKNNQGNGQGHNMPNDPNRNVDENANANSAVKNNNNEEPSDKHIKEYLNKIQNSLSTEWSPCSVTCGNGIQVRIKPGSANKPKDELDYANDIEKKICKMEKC

Binder | binding score
B1 | 0.743
B2 | 1.49
B3 | 0.989
B4 | 1.03
B5 | 1.08
B6 | 0.921
B7 | 0.77
B8 | 1.38
B9 | 0.814
B10 | 0.992
B11 | 1.19
B12 | 1.13
